The results in this text go back to patent US20260132217A1 (UNIVERSITE D AIX MARSEILLE, published 2026).

This assay has as its target T1, membrane CD146 on cells (U87, U373, HUVEC) (human, UniProt P43121 24-646).
T1 construct: whole, on cells; also called MCAM; membranous CD146
T1 sequence (looked up): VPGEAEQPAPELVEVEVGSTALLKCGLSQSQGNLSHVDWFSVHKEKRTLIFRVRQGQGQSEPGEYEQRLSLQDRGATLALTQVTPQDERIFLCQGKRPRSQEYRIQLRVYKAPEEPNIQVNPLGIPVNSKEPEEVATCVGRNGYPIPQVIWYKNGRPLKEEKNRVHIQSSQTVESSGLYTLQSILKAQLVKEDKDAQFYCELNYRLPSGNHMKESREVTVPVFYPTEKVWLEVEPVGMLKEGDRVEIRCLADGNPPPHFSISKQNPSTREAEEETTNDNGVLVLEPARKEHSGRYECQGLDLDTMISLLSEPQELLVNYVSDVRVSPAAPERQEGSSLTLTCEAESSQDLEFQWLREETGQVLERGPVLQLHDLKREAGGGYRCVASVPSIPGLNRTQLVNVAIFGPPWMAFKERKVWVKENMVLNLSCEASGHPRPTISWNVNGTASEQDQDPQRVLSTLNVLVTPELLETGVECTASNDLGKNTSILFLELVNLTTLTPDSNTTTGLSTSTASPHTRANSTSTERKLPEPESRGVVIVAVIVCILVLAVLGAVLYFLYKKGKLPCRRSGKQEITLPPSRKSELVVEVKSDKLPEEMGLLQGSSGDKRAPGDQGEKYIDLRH
Put plainly: co-immunoprecipitation with anti-CD146 antibody S-Endo1 from U87 cells (reproduced in U373), western blot. The protocol:
Non-confluent U373 cells were used for immunoprecipitation with IgG or anti-CD146 antibody. Western-blotting was then carried out using antibodies directed against VEGFR2, CD146 and integrin subunits αv and β3. Membrane receptor EPcam was used as a negative control (A). U373 cells transfected or not with siRNA targeting β3 integrin were stimulated for 25 min with sCD146 or VEGF, and CD146 was immunoprecipitated before western blotting was done using antibody directed against total phospho-tyrosine (B). Control, CD146-KO, VEGFR2-KO or β3-KO U87 cells were stimulated for 25 min with either sCD146 or VEGF. Lysates were then subjected to western-blotting and membranes were probed with either anti-phospho β3 Y759 (C) or anti-phospho VEGFR2 Y1054 (D). Average of 3 experiments is shown; *P<0.05, **P<0.01, ***p<0.001, experimental vs control.
Briefly, cells were grown on plates and treated as a function of the experiment, then washed in PBS, scraped off the plates and extracted with 300 μl of ice-cold RIPA buffer (150 mM NaCl, 50 mM Tris HCl, pH 7.4, 2.4 mM EDTA, 1% Nonidet P40, 0.5 mM phenylmethylsulfonyl fluoride, supplemented with protease and phosphatase inhibitor (A32959)) for 30 min at 4° C. After centrifugation (12,000 g, 10 min, 4° C.) to eliminate cell debris and nuclei, the Pierce™ BCA protein assay kit was used to quantify protein concentration. […]

B1: EPCAM on cells (U87, U373) (other, human, UniProt P16422 24-314, looked up)
chain: QEECVCENYKLAVNCFVNNNRQCQCTSVGAQNTVICSKLAAKCLVMKAEMNGSKLGRRAKPEGALQNNDGLYDPDCDESGLFKAKQCNGTSMCWCVNTAGVRRTDKDTEITCSERVRTYWIIIELKHKAREKPYDSKSLRTALQKEITTRYQLDPKFITSILYENNVITIDLVQNSSQKTQNDVDIADVAYYFEKDVKGESLFHSKKMDLTVNGEQLDLDPGQTLIYYVDEKAPEFSMQGLKAGVIAVIVVVVIAVVAGIVVLVISRKKRMAKYEKAEIKEMGEMHRELNA
notes: whole, on cells
On to B1, for which the binding result is “no binding”.
